Reference: the supplement of paper PMC12636428

Test system: Saccharomyces cerevisiae
Experiment: transcriptional activation domain activity (GFP:mCherry ratio, weighted mean of sorted bins, harmonized to initial dataset scale) (arbitrary fluorescence ratio units); higher = stronger transcriptional activation
Settings: beta-estradiol 1 µM; induction time 4 h
In short: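 The activation activity of each tile is the read-weighted mean of bin median fluorescence, averaged across its barcodes and mapped linearly onto the scale of the initial dataset. Tiles were fused to an estradiol-inducible synthetic transcription factor, barcoded, and integrated at URA3 in yeast diploids carrying a GFP reporter. Induction used 1 uM beta-estradiol in SC for 4 hours at 30 °C, after which cells were sorted into 8 GFP:mCherry bins, and any tile with fewer than 50 reads was dropped.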

Row | Sequence | transcriptional activation domain activity
1 | PLIPHVLPSLFPCPLFLPLFPPSPLLSPFPPSLCFPLPPFFLFPPLPLFPPFL | 25600
2 | PLIQVPGYHSCGHGGLGGLCQASPTLLVISQSLFLRWWHTVHLLIEIYIWLWS | 72200
3 | PLLACQVAYGFLVVFFSYSLIEEQVGCVIYYEHLVMLCWLVIIMPPNALLSTV | 58700
4 | PLLFLLNRLPIHPPLLIVPVLLWFYCRLTIYSILFWLNNLMVQKLSLLIMSIF | 34500
5 | PLLLKGLQFTMAEEKTWSLLRQIMLLDNLPLIDPAPTRFMYLLLGAIPRLLNG | 49700
6 | PLLNGSAIISRLTTGVIGDRYGVLTCEVPVAFITGCLIFSMCVLLLIILHLVC | 21700
7 | PLLRVLQICSFKDLMFDVPHLHRFISNAELLRTLNHLDVSFSSYSVFLQLVGF | 70500
8 | PLLTLNGLNCFFSLIYLINLLYSLKLFLQYFFFCLPFHIFILLMHSFLYYIFY | 62400
9 | PLLVLSKRLHSIFMLRCFNDCFAVLGLWLAIFCYQRDQWHLGSFFYSTGLNVK | 71500
10 | PLNMLHLGTWYLDGFQPFEHLRANKELWNLLVRGQTEILSLPRFGWTGWLLSF | 46900
11 | PLPPSSPHWLVWIHAQDVVTMRMPSRIRPLLQELLEVIISVIQPSLHSAPQSG | 49500
12 | PLPSPPSLPLPSPPSHSLLPLFLPFLPSLCSSLSILFPPLLLSHCPCFSFFLS | 63500
13 | PLSLLIYFLEWIGPLNLWIRCLCKTSLIEFYFRLLVILLMPFLFVFWHIIGLG | 40100
14 | PLVLPVTAFYFYMDSFLKKYLLLYVFITKYESGGMFWRVVFNRFLFLTLLGNI | 60500
15 | PLVRWMLDYVINHGEIVHSHPSIRTLATSLIDHPYFLSFICSSFFIEPRGLSG | 34800
16 | PLVVDFPQAVEYFPEMALKYMMCWLSRFDLLPGERLGCRVLAAFIHLTIHRVS | 57200
17 | PLVVFPNFMAVVIIFGFFFMYFEDFNKEVFLHNKHHQIWVYLHFPLHLCQVAF | 78400
18 | PLVVTALCVAPHEFFMKNWVSCFEVGLVKLKEKPYRMIVMNGMMRLIWTYLYR | 52800
19 | PLWLAPNLVTLLGFFCILFNIFLLVILVPDLVGPGPSWLYYSFGLGVWMYSTM | 68600
20 | PLYAYTIWSWLCQGVYFTLLTLLSFDQFQSLGEICFIFFELSFGNAMMVTLVS | 80300
21 | PLYPTTRCIFFFYRFLLYVVHLNMSLLMHSFFFVLLQACRGWMSLFLLLSLLF | 47900
22 | PMAVTLIERNVILGLRNAKTTDQLNTLINSLPFNNTSMLFLRLAMTKLSVIWS | 59900
23 | PMGGDPLLDQAFYGADDFFFPPEGCDNNMLYPQTATSWNVLPPQAMQPAPTYV | 63900
24 | PMRLHVDHVHVVGRPFLWYIIVAMCDNVTHVVLSFSGLTYYTTSRWFESIPYR | 61200
25 | PMSDQHKSQLLPITSVRLRLKLIVHWIHGFKTQWWFRVFFFQKYLRSILFDPF | 37700

Row | Sequence | transcriptional activation domain activity
26 | PNDDFLLDCEEWGLNQLFGDEQFSNNINDLSDDLLALIPDWSFIPPSEDPWGL | 147000
27 | PNGLMDPVLSTTNVSATSSNDNSANNSISSPEYTFGQFSMDSPHRTDATNTPI | 23000
28 | PNIHSLHSLYTFRFLHIHSFHNLFFLPFFYFLYSLCFLHLPCFLSFLRFLHLL | 63900
29 | PNIILPLNPCRSGEFCELYPSAANLWAMFLHLILFCMQLPFILSIPFWLLFPV | 52900
30 | PNLLMPCPWRSMDLCIFFRLAVGFFFLFLFPLSLSLPPSPFFFLFFSTPVIMV | 62500
31 | PNRRSMGKQDPYCAARLGKEAKKTATDRRGGQTPKWDQELRFTVHDSPDYHQL | 64200
32 | PNSSTSMDWLDNVIYTNRFVSGDDGSNSKTKNLDSNMFSNDFNFENQFDEQVS | 91700
33 | PNSTGDDPSRLRRAHRKSPGGCQSCKRRRVKCDEKVSCSNCRRRREHCHAGQQ | 56900
34 | PNVFGLMLFELGLGFWIKTDYYYMLICLSVSSLVFRAEISLLSGLLVLQDIFL | 66400
35 | PNWESLFGLMDFVRIRAEKLQWHLFLSLIRFMEAMIVRYMANYDRRTLHNSTE | 44300
36 | PNYEQHPAPAPAPAPGNKPEEHHEEKPEEHHEEKPSYEQHPAPAPAYQANAPH | 19400
37 | PPASTHTSVTSSPPVNDQWKDYALVLVRLMPMDKLSKPSFRYIIKSTYVRAVC | 58000
38 | PPCLKLAGWLAFVVGSFCQSTNLVVIQISQNNWDCFSIWRTLILLVIFFSLPA | 58500
39 | PPEEEAEEAVGAEKAEEAEEAEEAEEAVEEEPPKAANGRRSRAAAASAAKSSN | 35500
40 | PPGNRTGAVTIGDESINGSEMPDFSLDLVSNDRQTGLEALDYDIHNYFPQHSE | 75200
41 | PPGRVAPDAESVGYVLHSRLLTLLFPLFFFSLPLYNSSLLAGWAGWGLMMITF | 62900
42 | PPILVWMRYNAFFILYPLGAGSECLLTFFSLDEAHAWWPHYALLLKIILLIYI | 73800
43 | PPLSSPFLCFPLCFPLPPLPLFPPSPLFPLSSPPSLFPFPPLPLFNPFLPSLC | 29800
44 | PPPARAARPARRRGRGCQRRMSSRLCRGREGGGGGGVRLPVQVGVVMVVQLGR | 73100
45 | PPPHLQLIYSCKAVRSSIQIFFDRAFIFKCSSSLWVCIVMFSRWLRTIRLFVW | 85600
46 | PPPKGSDAALAAPPPPPGASGAPPPPPPKGSEAAAAAPPPPPPADASGAPPPP | 26100
47 | PPPPPPPGAMGGLPPPPPPPPPPPGGPGGGPPPPPPPPPGGPGGPPPPPPPPG | 35100
48 | PPPPPPPPPGPSPARFAPPPAPPPPPPPSGRPAPPPAPPPPPPPPPPAFGGGP | 17000
49 | PPPPPPPPPPAGRGGGAPPPHAISGGAPPPPPTPPPPPPPPPPPGVVPVPPPP | 41600
50 | PPPPPPPPPPGRGGAGHPPPPPPPPPPPAGGGGGPPPPPPPPPPSGGAPPPPP | < 6570

Row | Sequence | transcriptional activation domain activity
51 | PPPPPPPPPPPLSLLTTAIPPPPPPPPPLGGGPPPPPPPPPGPGGPPPPPPPP | 30700
52 | PPSLVDLVANTIAACHSETTPETVSLQIVKALLSLVLSSTILVHHSSLLKAVR | 50700
53 | PPWVDDCNPFLTDVYYLGSLLKRTFFVVYELTYKDFLFLLTLPVHRTPFLLCN | 50900
54 | PPYALGYFGESDHGFCSLKVDLVYSNFMIYYLIVVPRLLVYFYCLLILFFIAM | 61600
55 | PPYVVAPPVVCPYSPLIILFYMVTYFFLHCFRGLMGWLQFLALLLQSLMVGIP | 28900
56 | PQCYNNWKSLLLLQRYLYFVLPPFPVHFLPIFKILCTYIQLLIWFATISLASL | 40700
57 | PQEPQKGEEEGGARGRPRCPRRRGGPKEEAAVPVEAPAVLAAEPVKADEPAAP | 30200
58 | PQHCLDLNFMMALLHTGYGMPLEREVKIAKKIKGNELGWCLGASLPLLSKESG | 84000
59 | PQPAAGKRKRGRPRTSLPESEPRSEDRRSNTPSAAPQQSAKKSRGRPPKAASK | 38800
60 | PQQAQAQKEPKKPKPPPPPAAPPGPPPPPRAPPPPPPPPPPPPGGGGAPPPPA | 27600
61 | PQQNIAPPFLNTNSSATDSNPNTNLEDSLFFDHDLLSSSITNTNNGQGSNNGR | 24800
62 | PQRLDMIHFPLIYVGCVGVLLFNPFKIFFGSARMYFLNTMWRLAFSGFYHVEF | 40000
63 | PQSANITGACTELGEHTDCPIWNLLDARSLFRSCADLLISSWTWWWLAACRYV | 44700
64 | PQSEKSFKSAKNAPEKRAEERPRRRKTCARQNMRTNTNAAHTAHATGAITRRI | 30100
65 | PQYLHLGYLGHHIAIDPIPHPVGTVYLPLPPDTFPTWCTVTACGWILLPLFPL | 29000
66 | PRFLMYCKLGICQLVILRLFTSTFTIVLEMMGLFCPESMSWRFGHFWAVLFNF | 63600
67 | PRHIQTIDEKLINDSNYLAFLKFDDLENEKFHSSASSISSPSYSSPSFSSYRN | 82100
68 | PRKFICLTNQLTARLGCELDKDHDLFKRTLYAVVQYVLVNHPHHILYNLIALS | 46000
69 | PRLFPIASHLFFSLPHAKCCYPYLLLLLFPLLPLPFSLLVFCNLIFFFFFLFF | 41300
70 | PRNSWIKWAFLFARYFPLLAGLCGRVIDSIVLYRQPIPIPLNALRIWYICQVL | 52500
71 | PRQMCRLYRAGYGLFYNQFCAYIDIAFCMMLCQWNLDILETLRYRLEFGRYLA | 71100
72 | PRQPRERKPRAEGEEGEHVEGQQEAGERRRERRPRKPRNKSAGGAGAGAEGAA | 17100
73 | PRTASRRAARSARPRRQSSPRPKGRRSNTRPSKRASVSPAKDSDASDGDDERE | 19400
74 | PRVLHGLELICHIAYLIIILHFIFDWRIDGHMPEWRFYGAREYILFIYSLSIL | 31100
